Assay results from patent US10000771B2, “Nuclear targeting sequences” (Yeda Research and Development Co. Ltd., priority 2007, dated 2018).

How the values were obtained:
Nup153c = assay: Interaction with recombinant His-Nup153c; assay type: binding; conditions: immunoprecipitated ERK2 incubated with 0.5 μg recombinant His-Nup153c
Method: (§1) FIGS. 19A-19C are autoradiographs illustrating that phospho-SPS interacts with importin-7 and releases Nup153c binding without involvment of importin-β. […]. Interaction of ERK2 with Importin-7 is enhanced by EGF stimulation and EPE mutation. HeLa cells overexpressing WT-ERK (WT), ERK-APA (APA), ERK-EPE (EPE) or GFP were serum starved and treated with EGF (50 ng/ml, 10 min). The extracts of the treated cells were then subjected to coimmunoprecipitation using A/G beads pre-conjugated with anti GFP Ab and mild washes. The coimmunoprecipitated importin-7 (first panel) and importin-β (third panel), as well as their loading amounts (panels 2 and 4 respectively) were determined by WB using anti importin-7 (αImp7) and importin-β (αImpβ) Abs. The equal amount of immunoprecipitated ERKs was determined with anti GFP (αGFP; IP) Ab. FIG. 19B. Interaction of 2GFP-SPS and its mutants with importin-7. HeLa cells overexpressing 2GFP, 2GFP-SPS, 2GFP-APA and 2GFP-EPE constructs were subjected to coimmunoprecipitation as described in FIG. 19A (without EGF stimulation). FIG. 19C. Interaction of NUP153 with WTERK2 and its APA and EPE mutants. NUP153c is elevated in APA-ERK2, but reduced in EPE-ERK2. Immunoprecipitated and stringently washed WT-ERK2 (WT), APA-ERK2 (APA) or ERK2 from […] cells pre-treated with or without TPA (250 nM, 15 min) were incubated with 0.5 μg recombinant His-Nup153c. […]

COS7 cells [1] = assay: Subcellular fractionation of GFP-ERK2 constructs; assay type: cell-based; conditions: 48 hr after transfection, serum-starved
Method: FIG. 6 is an autoradiograph illustrating the subcellular fractionation of WT-GFP-ERK2 (WT), APA-GFP-ERK2 (APA), or EPE-GFP-ERK2 (EPE). COS7 cells were grown in 10 cm plates and transfected with the above ERK2 constructs. Twenty-four hr after transfection the cells were serum-starved for 16 hr and subjected to cellular fractionation as described under materials and Methods. Western blot analysis of aliquots of the fractions were stained with anti GFP Ab to detect the ERK2 and its mutant, and with anti tubulin and anti c-Jun Abs as markers for the cytoplasmic and nuclear fractions respectively.
Cellular Fractionation: Transfected COS7 cells were starved (0.1% FBS) for 16 h, after which they were washed with ice-cold PBS, suspended in ice-cold buffer H, and centrifuged (12,000×g, 5 min). Then, the nuclear and cytosolic fractions were isolated as described [H. Rubinfeld, T. Hanoch, R. Seger, J. Biol. Chem. 274, 30349 (1999)]. Briefly, the pellets were suspended in 0.1% NP-40 followed by centrifugation (12,000×g, 5 min). The supernatant, containing the cytosolic fraction, was boiled in sample buffer. The pellet was suspended in extraction buffer (420 mM Nacl, 50 mM β-glycerophosphate, 0.5 mM Na3VO4, 1.5 mM MgCl2, 0.2 mM EDTA, 1 mM DTT, 25% glycerol), incubate on ice for 10 min, sonicated (50 W, 2×7 sec), and centrifuged (12,000×g, 5 min). […]

CHO cells = assay: Fluorescence microscopy of ERK2 constructs (subcellular localization); assay type: cell-based
Method: FIGS. 1A-1R are photomicrographs illustrating the role of SPS in the non-regulated accumulation of ERK2 in the nucleus. CHO (FIGS. 1A-F and 1M-R) or COS7 cells (FIGS. 1G-L) were grown on cover slips and transfected with WT-ERK2, or the mutants 244-6A and Δ244-6. Twenty-four hr following transfection, the cells were serum-starved (16 hr), fixed, stained with DAPI and visualized using a fluorescent microscope.
FIGS. 2A-2X are photomicrographs illustrating the role of SPS in the stimulated nuclear translocation of ERK2. CHO cells were grown on cover slips and co-transfected with HA-MEK1 together with either WT-ERK2, 244-6A, or Δ244-6. Twenty-four hr after transfection, the cells were serum starved for 16 hours, treated with TPA (250 nM, 15 min), except in WT-10 where the cells were treated with 10 nM TPA for 15 min. After treatments the cells were fixed and stained with either anti-HA Ab or DAPI.
FIGS. 5A-5F are photomicrographs illustrating that mutating the Ser residues in the SPS to Glu induces the nuclear accumulation of ERK2. CHO cells were grown on cover slips and transfected with WT-GFP-ERK2 (WT), APA-GFP-ERK2 (APA), or EPE-GFP-ERK2 (EPE). Twenty-four hr after transfection, the cells were serum-starved, fixed, stained with DAPI and visualized by a fluorescent microscope.
FIGS. 7A-7H are photomicrographs illustrating that EPE-ERKs translocates to the nucleus faster than WT-ERK. CHO cells were transfected with WT-GFP-ERK2 (WT) and EPE-GFP-ERK2 (EPE). Eight (FIGS. 7A-D) or twelve (FIGS. 7E-H) hours after transfection the cells were fixed, stained with DAPI and visualized by a fluorescent microscope.
Immunofluorescence Microscopy. Cells were fixed (30 min in 3% paraformaldehyde in PBS or 10 min with ice-cold methanol), followed by 5-min permeabilization with 0.2% Triton X-100 in PBS (23° C.). The fixed cells were sequentially incubated with the appropriate Abs (45 min) followed by rhodamine-conjugated secondary Abs (45 min) and DAPI. Slides were visualized using a fluorescence microscope (Nikon, Japan) at 400× magnifications. […]

importin-7 = molecular target: T1, importin-7 (Homo sapiens, UniProt O95373); assay: Coimmunoprecipitation with importin-7; assay type: binding; conditions: HeLa cells, coimmunoprecipitation with anti GFP Ab, with or without stimulation
T1 construct: endogenous in cells; host or cells: HeLa
T1 sequence (O95373 whole entry): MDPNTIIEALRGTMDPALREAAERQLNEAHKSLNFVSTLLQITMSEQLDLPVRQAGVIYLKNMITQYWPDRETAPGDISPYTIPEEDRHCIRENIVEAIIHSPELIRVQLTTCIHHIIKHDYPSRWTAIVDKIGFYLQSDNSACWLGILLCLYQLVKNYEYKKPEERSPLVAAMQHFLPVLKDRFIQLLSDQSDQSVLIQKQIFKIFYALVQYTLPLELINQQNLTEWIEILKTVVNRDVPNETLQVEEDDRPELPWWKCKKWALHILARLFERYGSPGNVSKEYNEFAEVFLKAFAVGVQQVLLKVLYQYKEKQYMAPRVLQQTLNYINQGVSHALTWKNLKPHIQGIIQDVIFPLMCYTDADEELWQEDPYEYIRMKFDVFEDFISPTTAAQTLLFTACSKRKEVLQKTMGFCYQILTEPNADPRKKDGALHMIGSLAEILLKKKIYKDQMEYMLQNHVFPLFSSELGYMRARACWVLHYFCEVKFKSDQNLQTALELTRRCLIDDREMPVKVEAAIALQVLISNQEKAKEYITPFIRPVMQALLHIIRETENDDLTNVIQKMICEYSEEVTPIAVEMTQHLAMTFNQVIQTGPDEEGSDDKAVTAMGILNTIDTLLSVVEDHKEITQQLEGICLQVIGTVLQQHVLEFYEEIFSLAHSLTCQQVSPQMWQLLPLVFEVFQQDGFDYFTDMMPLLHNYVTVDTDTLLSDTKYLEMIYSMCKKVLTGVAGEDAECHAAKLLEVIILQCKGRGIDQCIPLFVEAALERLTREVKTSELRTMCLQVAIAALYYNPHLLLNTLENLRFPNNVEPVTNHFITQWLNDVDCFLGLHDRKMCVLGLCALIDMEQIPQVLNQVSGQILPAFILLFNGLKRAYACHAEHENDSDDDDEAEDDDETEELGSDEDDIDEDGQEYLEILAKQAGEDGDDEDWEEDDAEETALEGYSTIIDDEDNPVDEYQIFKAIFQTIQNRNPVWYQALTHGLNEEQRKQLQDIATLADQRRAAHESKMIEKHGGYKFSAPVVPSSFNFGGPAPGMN
Method: as §1

COS7 cells [2] = assay: Proliferation assay of COS7 cells overexpressing ERK2 constructs; assay type: cell-based; conditions: 72 hours after transfection
Method: FIG. 16 is a bar graph illustrating that the prevention of SPS phosphorylation inhibits proliferation. COS7 cells overexpressing WT-ERK2, 244-6A-ERK2, ▴244-6-ERK2, APA-ERK2 or EPE-ERK2 were subjected to proliferation assay 72 hours after transfection. The bar graph represent the mean+/−SD (n=3), Student t test was used for statistical analysis (*, p<0.01).

interaction of ERK2 constructs with importin-7 (importin-7): dramatically increased the interaction
B1: EPE-ERK2: GFP-ERK2 with the two Ser residues of the SPS domain replaced with Glu (phosphomimetic) (protein)
chain: MAAAAAAGPEMVRGQVFDVGPRYTNLSYIGEGAYGMVCSAYDNLNKVRVAIKKISPFEHQTYCQRTLREIKILLRFRHENIIGINDIIRAPTIEQMKDVYIVQDLMETDLYKLLKTQHLSNDHICYFLYQILRGLKYIHSANVLHRDLKPSNLLLNTTCDLKICDFGLARVADPDHDHTGFLTEYVATRWYRAPEIMLNSKGYTKSIDIWSVGCILAEMLSNRPIFPGKHYLDQLNHILGILGEPEQEDLNCIINLKARNYLLSLPHKNKVPWNRLFPNADSKALDLLDKMLTFNPHKRIEVEQALAHPYLEQYYDPSDEPIAEAPFKFDMELDDLPKEKLKELIFEETARFQPGYRS
modifications: left off: large carriers
interaction with Nup153 (Nup153c): reduced
localized in the nucleus (COS7 cells [1]): ~95%
speed of translocation into the nucleus (CHO cells; CHO cells, shortly (8 or 12 hours) after transfection): faster than WT-ERK2
subcellular localization in quiescent cells (CHO cells; overexpressed in CHO (and COS7) cells, serum-starved, fluorescent microscope): pronounced nuclear localization
serum-induced cell proliferation (COS7 cells [2]): slightly enhanced
